The record followed here is article PMC5025174 (PLoS ONE, 2016).

Changes are numbered by the printed parent chain. In names and notes the source's numbering stands.

One experiment addresses T1, human ICAM-1 ectodomain (Homo sapiens, UniProt P05362).
T1 construct: human ICAM-1, ectodomain; source: bought: R&D Systems
Kind of experiment: SPR; SEC-purified VHH monomers, 0.5-200 nM, over human ICAM-1 ectodomain amine-coupled to a CM5 chip (1348 RU); 25°C, HBS-EP pH 7.4; 1:1 binding model. To be noted: both partners purified.

For the next experiment, the target named is T2, human IGF1R ectodomain (Homo sapiens, UniProt P08069).
T2 construct: human IGF1R, ectodomain; source: bought: R&D Systems
T2 sequence (P08069 741-935): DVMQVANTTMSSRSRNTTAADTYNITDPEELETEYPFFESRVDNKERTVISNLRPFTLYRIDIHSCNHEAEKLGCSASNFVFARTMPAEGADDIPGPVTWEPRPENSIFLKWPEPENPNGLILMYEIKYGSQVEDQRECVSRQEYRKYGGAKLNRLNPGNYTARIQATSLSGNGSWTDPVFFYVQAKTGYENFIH
Put plainly: SPR; SEC-purified VHH monomers, 0.1-10 nM, over human IGF1R ectodomain amine-coupled to a CM5 chip (476 RU); 25°C, HBS-EP pH 7.4; 1:1 binding model. The settings on record: both partners purified. Background: Surface plasmon resonance follows binding to a sensor surface in real time, without labels.

T1 sequence (P05362 28-480): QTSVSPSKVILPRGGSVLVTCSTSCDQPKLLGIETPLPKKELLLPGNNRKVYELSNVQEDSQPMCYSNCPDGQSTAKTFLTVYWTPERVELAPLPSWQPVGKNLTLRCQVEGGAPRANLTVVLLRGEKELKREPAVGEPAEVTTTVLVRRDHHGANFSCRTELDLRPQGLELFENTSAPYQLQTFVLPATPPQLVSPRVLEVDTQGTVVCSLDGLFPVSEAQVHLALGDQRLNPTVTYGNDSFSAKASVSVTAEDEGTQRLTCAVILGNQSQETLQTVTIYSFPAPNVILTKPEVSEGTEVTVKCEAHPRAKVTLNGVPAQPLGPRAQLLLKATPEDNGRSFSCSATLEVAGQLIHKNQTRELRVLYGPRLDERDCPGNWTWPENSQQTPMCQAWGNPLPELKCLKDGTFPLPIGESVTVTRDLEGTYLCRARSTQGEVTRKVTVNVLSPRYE

B1: ICAM34-1 VHH, wild-type (VHH)
VHH: QVKLEESGGGLVQPGGSLRLSCAASGSIFSINDMGWYRQAPGKQRELVARITRDGSAAYEDSVKGRFTISRDNAPNTVFLQMNGLKPEDTAVYYCNAEIITTQTLGRMLGEYWGQGTQVTVSS
notes: anti-human ICAM-1; bears Ala57, Pro75, Gly82b (Kabat); source: E. coli TG1, periplasm (osmotic shock), purified (IMAC)
In general, Kd refers to the concentration at which binding is half-saturated. Low values mean tighter binding, high ones weaker binding. The molecule B1 gave a Kd with human ICAM-1 ectodomain of 32 nM.

B2: ICAM11-4 VHH, wild-type (VHH)
VHH: QVQLVESGGGLVQPGGSLRLSCAASGSISSLYVMGWYRQAPGKQRELVADITSSGSIYYVDSLKGRFTISRDNARSTVYLQMNSLEPEDTAVYYCMAHVRQDSGSEYLTYWGQGTQVTVSS
notes: anti-human ICAM-1; bears Ile57 (Kabat); source: E. coli TG1, periplasm (osmotic shock), purified (IMAC)
B2 had a Kd with human ICAM-1 ectodomain of 0.9 nM.

B3: ICAM11-4 VHH I57T (SpA-engineered) (VHH)
VHH: B2 VHH with I57T
notes: as the VHH of m6 with the stated change; numbers count on: Kabat numbering; also called ICAM11-4 I57T; SpA-engineered ICAM11-4; source: E. coli TG1, periplasm (osmotic shock), purified (IMAC); periplasmic extract for protein A chromatography
As for B3, binding with human ICAM-1 ectodomain was characterised by a dissociation constant (Kd) of 1.3 nM. This Kd and that of the molecule before are within 1.5-fold of each other.

B4: IGF1R-4 VHH, wild-type (VHH)
VHH: QVKLEESGGGLVQAGGSLRLSCEVSGGTVSPTAMGWFRQAPGKEREFVGHITWSRGTTRVASSVKDRFTISRDSAKNTVYLQMNSLKSEDTAVYYCAASTFLRILPEESAYTYWGQGTQVTVSS
notes: anti-human IGF1R; bears Val59, Asp65 (Kabat); source: E. coli TG1, periplasm (osmotic shock), purified (IMAC)
Regarding B4, binding with human IGF1R ectodomain was put at a Kd of 0.3 nM.

B5: IGF1R-4 VHH, humanized (VHH)
VHH: QVQLVESGGGLVQPGGSLRLSCAVSGGTVSPTAMGWFRQAPGKGLEFVGHITWSRGTTRYASSVKGRFTISRDNSKNTVYLQMNSLRAEDTAVYYCAASTFLRILPEESAYTYWGQGTLVTVSS
notes: as the VHH of m18 with FRs reverted to human IGHV3 germline; also called humanized IGF1R-4; source: E. coli TG1, periplasm (osmotic shock), purified (IMAC); periplasmic extract for protein A chromatography
For the molecule B5, the Kd in the experiment with human IGF1R ectodomain came to 0.4 nM.

B6: IGF1R-5 VHH, wild-type (VHH)
VHH: QVKLEESGGGLVQAGGSLRLSCAASGRTIDNYAMAWSRQAPGKDREFVATIDWGDGGARYANSVKGRFTISRDNAKGTMYLQMNNLEPEDTAVYSCAMARQSRVNLDVARYDYWGQGTQVTVSS
notes: anti-human IGF1R; bears Ala57, Asn82b (Kabat); source: E. coli TG1, periplasm (osmotic shock), purified (IMAC)
In the case of B6, in the experiment with human IGF1R ectodomain, binding was characterised by a dissociation constant (Kd) of 0.8 nM.

B7: IGF1R-5 VHH, humanized (VHH)
VHH: QVQLVESGGGLVQPGGSLRLSCAASGRTIDNYAMAWSRQAPGKGLEFVATIDWGDGGTRYANSVKGRFTISRDNSKNTMYLQMNSLRAEDTAVYYCAMARQSRVNLDVARYDYWGQGTLVTVSS
notes: as the VHH of m23 with FRs reverted to human IGHV3 germline; also called humanized IGF1R-5; source: E. coli TG1, periplasm (osmotic shock), purified (IMAC); periplasmic extract for protein A chromatography
As for B7, in the experiment with human IGF1R ectodomain, the Kd was 0.9 nM.
